Laboratory results taken from US20140348834A1 (published 2014).
Changes are numbered by the printed parent chain.

T1: rat IL-17A (rat, UniProt Q61453 18-150, limits assumed)
T1 construct: Purified recombinant protein in SPR
T1 sequence (looked up): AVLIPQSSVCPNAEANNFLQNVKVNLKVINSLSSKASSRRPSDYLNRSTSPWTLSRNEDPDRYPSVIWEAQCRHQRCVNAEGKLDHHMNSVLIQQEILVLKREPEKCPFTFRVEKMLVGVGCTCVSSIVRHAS

T2: mouse IL-17A (mouse, UniProt Q62386 26-158, limits assumed)
T2 construct: Purified recombinant protein in SPR; also called MuIL-17A; murine IL-17A
T2 sequence (looked up): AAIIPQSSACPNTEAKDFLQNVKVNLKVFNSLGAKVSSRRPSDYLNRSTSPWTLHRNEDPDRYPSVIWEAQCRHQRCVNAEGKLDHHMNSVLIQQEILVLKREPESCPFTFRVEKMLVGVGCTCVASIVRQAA

B1: IL17-B6-46 (antibody, V domains shown)
VH: EVQLVQSGAEVKKPGESLKISCKASGGSFISYGISWVRQAPGQGLEWMGGITHFFGSTDYAQKFQGRVTITADESTTTAYMELSGLTSDDTAVYYCAREPNEFWNGYYTTHDFDSWGQGTTVTVSS
VL: EIVLTQSPDFQSVTPKEKVTITCRASQAIGSELHWYQQKPDQSPKLLIKYASYSVSGVPSRFSGSGSGTDFTLTINGLEAEDAGTYYCHQSASLPYTFGQGTKVDIK
notes: also called pJP253 B6.1 #46VH / pJP254 B6.1 #46Vk
B2: IL17-G9-3 (antibody, V domains shown)
VH: EVQLLESGGGVVQPGRSLRLSCAASGFIFSNYGMHWVRQAPGKGLEWVAVISYDGSNKYYADSVKGRFTISRDNSKNTLYLEMNSLRPEDTAVYYCAKVGASGDYYYSYGLDVWGQGTTVTVSS
VL: QSVLTQPPSASGTPGQTVSISCSGRNSNIGSHYVHWYQQVPGAAPKLLMYDFGLRPSGVPDRFSVSQSGTSASLAISGLQSEDEADYYCATWDDMLGGYVFGTGTKVTVLG
B3: IL17-G9-5 (antibody, V domains shown)
VH: B2 VH with S30R, S52A, N57R, K58Q, A61S, V113L
VL: QSVLTQPPSASGTPGQTVSISCSGRQSNIGRHYVDWYQQVPGAAPKLLMYYDSIRPSGVPDRFSGSQSGTSASLAISGLQSEDEADYYCGMWDDSLAGYVFGSGTKVTVLG
B4: IL17-G9-6 (antibody, V domains shown)
VH: B2 VH with N31D
VL: B3 VL with R31N, M49I, Y51G, S53V, G90A, M91T, S95W
B5: IL17-G9-M1 (antibody, V domains shown)
VH: B2 VH with S56G, N57Y, V99L, G100S, A101L, L111F, V113G
VL: B2 VL with R25S, N26K, L54Q, V65G, A90G, M95W
B6: IL17-B6-29 (antibody, V domains shown)
VH: EVQLVQSGAEVKKPGSSVKVSCKASGGSFISYGYNWVRQAPGQGLEWMGGITPFFGTADYAQKFQGRVTITADESTTTAYMELSGLTSDDTAVYYCAREPNDFWNGYYTTHHFDYWGQGTTVTVSS
VL: DVVMTQSPDFQSVTPKEKVTITCRASQNIGSALHWYQQKPDQSPKLLIKYASQSISGVPSRFSGSGSGTDFTLTINGLEAEDAGTYYCHQSTSLPHTFGQGTKLDIKR
B7: IL17-LN-K9-F5 (antibody, V domains shown)
VH: EVQLVQSGAEVKNPGASVKVSCKVSGSRLSDLAMHWVRQAPGKGPEWMGGFDPDEGETVYAQNFQGRVSMTEDTSSDTAYMELNSLRSEDTAVYYCATIRPWLGGAYYFDNWGQGTLVTVSS
VL: ETTLTQSPAFMSATPGDKVNISCKASQDIDDDMNWYQQKPGEAALFIIQEATTLVPGIPPRFSGSGYGTDFTLTVNNIQSEDAAYYFCLQHDSFPYTFGQGTKLEIKR
notes: Fully human monoclonal antibody from mRNA display
B8: IL17-B6-18 (antibody, V domains shown)
VH: EVQLVQSGAEVKKPGESLKVSCKASGGRFRTYGISWVRQAPGQGLEWMGGITNFFGWTDYAQKFQGRVTITADESTTTAYMELSGLTSDDTAVYYCARVPNEFWNGYYATDYFDNWGQGTTVTVSS
VL: B1 VL with A28E, S31A, E32S, Y53H, V55A, G77S, G84A, A92D, S93G
notes: also called pJP251 B6.1 #18VH / pJP250 B6.1 #18Vk
B9: IL17-G9-2 (antibody, V domains shown)
VH: B2 VH with S30R
VL: B3 VL with R25S, Q26N, Y33P, M49I, S53D, I54Q, G90A, M91T, A97G
B10: IL17-G9-4 (antibody, V domains shown)
VH: B2 VH
VL: B3 VL with G90A, M91T, A97G
notes: converted into IgG
B11: IL17-G9-M2 (antibody, V domains shown)
VH: B2 VH
VL: B2 VL with R25H, S31Y, M49I, D51G, F52D, L54W, V65G, A90G, M95W
notes: converted into IgG
B12: IL17-G9-M1 (antibody, V domains shown)
VH: B2 VH with S56G, N57Y, V99L, G100S, A101L, L111F, V113G
VL: B2 VL with R25S, N26K, L54Q, V65G, A90G, M95W
B13: IL17-TN-K7-B6 (antibody, V domains shown)
VH: B6 VH with S16E, V18L, V20I, I30R, Y34I, N35S, F54I, F55L, D59N, T121P
VL: B6 VL
notes: Fully human antibody
B14: IL17-B6-15 (antibody, V domains shown)
VH: B1 VH with I30S, S31G, I34T, S57A, T58V, E99D, T109A, S115Y
VL: B1 VL with A28N, S31A, Y53H, V55I, S91T, A92D, S93R, T97S, Q100P
B15: IL17-B6-16 (antibody, V domains shown)
VH: EVQLVQSGAEVKMPGSSLKISCKASGGSFRGYGISWVRQAPGQGLEWMGGITPFFGWADYAQKFQGRVTITADESTTTAYMELSGLTSDDTAVYYCARDPNEFWNGYYDTHHFDYWGQGTTVTVSS
VL: B1 VL with A28D, E32A, Y53H, A92D, S93I, Y96H, Q100P
B16: IL17-h5C5.18 (antibody, V domains shown)
VH: EVQLVQSGAEVKKPGASVKVSCKASGYTFTDYEFHWVRQAPGQGLEWIGVIHPGNGGTAYNQNFRDRATLTADKSTSTAYMELSSLRSEDTAVYYCTRFLTYEGYFDYWGQGTLVTVSS
VL: NIVMTQSPSSLSASVGDRVTITCKASQSVSIDVGWFQQKPGKSPKLLIYHASNRYTGVPSRFSGSGSGTDFTFTISSLQPEDFATYFCQQDYSSPYTFGQGTKLEIKR
notes: IgG; constant regions not specified; also called h5C5.18 (VH.1b-Vk.1c)

The binders below were run against T3, human IL-17A (human, UniProt Q16552 24-155) (assay: ELISA, captured antibody, serially diluted biotin-IL-17 (Example 1.5.1)).
T3 construct: Biotinylated in the ELISA; also called hIL-17; Hu IL-17A
T3 sequence (Q16552 24-155 limits assumed): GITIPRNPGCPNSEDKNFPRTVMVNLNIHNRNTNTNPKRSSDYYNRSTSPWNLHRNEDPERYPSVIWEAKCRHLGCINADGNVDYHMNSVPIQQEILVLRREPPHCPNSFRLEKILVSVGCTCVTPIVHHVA
With B1 the EC50 was 0.14 nM.
Work on B2 yielded an EC50 of 0.05 nM.
B3 showed an EC50 of 0.12 nM.
In the case of B4, the EC50 is reported as 0.12 nM.
B5 was tested, and the EC50 was 0.08 nM.
Work on B6 yielded an EC50 of 0.09 nM.
B7 gave an EC50 of 7.45 nM.
In the case of B8, the EC50 is reported as 0.16 nM.

What follows are binders tested against T3, human IL-17A (assay: cell-based or functional assay).
For B1, the “Potency (pM), IL-17-driven IL-6 production in HS27 cells” value (“Potency (pM)” below) was 59 pM.
In the case of B2, the “Potency (pM)” value is reported as 334 pM.
For B3, the “Potency (pM)” value was 310 pM.
B4 was tested, and the “Potency (pM)” value was 884 pM.
In the case of B5, the “Potency (pM)” value is reported as 88 pM.
With B6 the “Potency (pM)” value was 134 pM.

Each binder was assayed against cyno IL-17A (cynomolgus monkey, UniProt A0A2K5TTB0 24-155) (assay: SPR Biacore, captured binder).
cyno IL-17A, sequence (A0A2K5TTB0 entry or part of it): as the sequence (Q16552 24-155 limits assumed) above, with T3A, P8S, N34S, I77V, N78K, P104R counted along it
Method: (§1) The binding of antibodies to purified recombinant human, cyno, rat, mouse, rabbit IL-17 and human IL-17A/F were determined by surface plasmon resonance-based measurements with a Biacore® 3000 instrument (Biacore® AB, Uppsala, Sweden) using running HBS-EP (10 mM HEPES [pH 7.4], 150 mM NaCl, 3 mM EDTA, and 0.005% surfactant P20) at 25° C. […] Approximately 5000 RU of goat anti-mouse or anti-human IgG (Fcγ) fragment specific polyclonal antibody (Pierce Biotechnology Inc, Rockford, Ill.) diluted in 10 mM sodium acetate (pH 4.5) was directly immobilized across a CM5 research grade biosensor chip using a standard amine coupling kit according to manufacturer's instructions and procedures at 25 μg/ml. Unreacted moieties on the biosensor surface were blocked with ethanolamine. Modified carboxymethyl dextran surface in flowcell 2 and 4 was used as a reaction surface. Unmodified carboxymethyl dextran without goat anti-mouse or anti-human IgG in flow cell 1 and 3 was used as the reference surface. For kinetic analysis, rate equations derived from the 1:1 Langmuir binding model were fitted simultaneously to association and dissociation phases of all eight injections (using global fit analysis) with the use of Biaevaluation 4.0.1 software. Purified antibodies were diluted in HEPES-buffered saline for capture across goat anti-mouse or anti-human IgG specific reaction surfaces. Antibodies to be captured as a ligand (25 μg/ml) were injected over reaction matrices at a flow rate of 5 μl/min. The association and dissociation rate constants, kon (unit M-1s-1) and koff (unit s-1) were determined under a continuous flow rate of 25 μl/min. Rate constants were derived by making kinetic binding measurements at ten different antigen concentrations ranging from 10 nM to 200 nM. The equilibrium dissociation constant (unit M) of the reaction between antibodies and recombinant purified IL-17 antigens was then calculated from the kinetic rate constants by the following formula: KD=koff/kon. Binding was recorded as a function of time and kinetic rate constants are calculated. In this assay, on-rates as fast as 10⁶ M⁻¹ s⁻¹ and off-rates as slow as 10⁻⁶ s⁻¹ can be measured.
With B9 the Kd was less than 0.0027 nM, the koff was less than 1e-06 s⁻¹ and the kon was 371000 M⁻¹ s⁻¹.
B10 was tested, and the Kd was 0.00377 nM, the koff was 1e-06 s⁻¹ and the kon was 265000 M⁻¹ s⁻¹.
B11 showed a Kd of less than 0.00245 nM, a koff of less than 1e-06 s⁻¹ and a kon of 408000 M⁻¹ s⁻¹.
In the case of B12, the Kd is reported as 0.00265 nM, the koff is reported as 1e-06 s⁻¹ and the kon is reported as 377000 M⁻¹ s⁻¹.
B13 gave a Kd of 0.992 nM, a koff of 2.51e-05 s⁻¹ and a kon of 25300 M⁻¹ s⁻¹.
In the case of B14, the Kd is reported as 0.00401 nM, the koff is reported as 5.5e-05 s⁻¹ and the kon is reported as 1.37e+07 M⁻¹ s⁻¹.
B15 gave a Kd of 0.00483 nM, a koff of 4.48e-05 s⁻¹ and a kon of 9.27e+06 M⁻¹ s⁻¹.

These binders were tested against T4, human IL-17A/F (human, UniProt Q16552 24-155; Q96PD4 31-163) (assay: SPR Biacore, captured binder).
T4 construct: Heterodimer of IL-17A and IL-17F, purified recombinant; also called HuIL-17A/F; Hu IL-17A/F
T4 sequence (Q16552 24-155 limits assumed, chain 1 of 2): as the sequence (Q16552 24-155 limits assumed) above
T4 sequence (Q96PD4 31-163 limits assumed, chain 2 of 2): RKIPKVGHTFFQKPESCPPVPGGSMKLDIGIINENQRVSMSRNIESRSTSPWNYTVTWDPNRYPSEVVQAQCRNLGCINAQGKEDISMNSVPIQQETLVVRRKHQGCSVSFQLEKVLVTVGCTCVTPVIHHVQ
Method: as §1
With B9 the Kd was 0.437 nM, the koff was 8.66e-05 s⁻¹ and the kon was 198000 M⁻¹ s⁻¹.
In the case of B10, the Kd is reported as 0.00424 nM, the koff is reported as 1e-06 s⁻¹ and the kon is reported as 236000 M⁻¹ s⁻¹.
Work on B11 yielded a Kd of 0.0103 nM, a koff of 1.41e-06 s⁻¹ and a kon of 137000 M⁻¹ s⁻¹.
Binder B12 has a Kd of 0.244 nM, a koff of 3.95e-05 s⁻¹ and a kon of 162000 M⁻¹ s⁻¹.
B13 was tested, and the Kd was 21.9 nM, the koff was 0.000175 s⁻¹ and the kon was 7980 M⁻¹ s⁻¹.
B14 was tested, and the Kd was 0.00647 nM, the koff was 5.71e-05 s⁻¹ and the kon was 8.82e+06 M⁻¹ s⁻¹.
B15 was tested, and the Kd was 0.0164 nM, the koff was 6.57e-05 s⁻¹ and the kon was 4e+06 M⁻¹ s⁻¹.

Each binder was assayed against T5, human IL-17A (human, UniProt Q16552 24-155) (assay: SPR Biacore, captured binder).
T5 construct: Purified recombinant; biotinylated in the ELISA; also called HuIL-17A; Hu IL-17A
T5 sequence (Q16552 24-155 limits assumed): as the sequence (Q16552 24-155 limits assumed) above
Method: as §1
With B9 the Kd was less than 0.00433 nM, the koff was less than 1e-06 s⁻¹ and the kon was 231000 M⁻¹ s⁻¹.
Work on B10 yielded a Kd of 0.00469 nM, a koff of 1e-06 s⁻¹ and a kon of 213000 M⁻¹ s⁻¹.
With B11 the Kd was 0.00826 nM, the koff was 2.32e-06 s⁻¹ and the kon was 281000 M⁻¹ s⁻¹.
In the case of B12, the Kd is reported as 0.00322 nM, the koff is reported as 1e-06 s⁻¹ and the kon is reported as 311000 M⁻¹ s⁻¹.
B13 was tested, and the Kd was 0.84 nM, the koff was 1.47e-05 s⁻¹ and the kon was 17500 M⁻¹ s⁻¹.
With B14 the Kd was 0.0073 nM, the koff was 6.02e-05 s⁻¹ and the kon was 8.25e+06 M⁻¹ s⁻¹.
Binder B15 has a Kd of 0.00794 nM, a koff of 3e-05 s⁻¹ and a kon of 3.78e+06 M⁻¹ s⁻¹.

These binders were tested against T6, human IL-17A (human, UniProt Q16552 24-155) (assay: hIL17A ELISA).
T6 construct: Recombinant; biotinylated in the ELISA; also called hIL-17; hIL17A
T6 sequence (Q16552 24-155): as the sequence (Q16552 24-155 limits assumed) above
B16 gave an EC50 of 0.03 nM.

Each binder was assayed against T7, human IL-17A/F (human, UniProt Q16552 24-155; Q96PD4 31-163) (assay: SPR (Biacore 3000), antibody captured by anti-Fc, antigen in solution;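 note: purified recombinant IL-17 antigens flowed over captured antibodies in HBS-EP buffer, global Langmuir one-to-one fit of association and dissociation phases, KD derived from koff over kon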).
T7 construct: Recombinant; biotinylated in the ELISA; also called hIL-17A/F; HuIL-17A/F
T7 sequence (Q16552 24-155, chain 1 of 2): as the sequence (Q16552 24-155 limits assumed) above
T7 sequence (Q96PD4 31-163, chain 2 of 2): as the sequence (Q96PD4 31-163 limits assumed, chain 2 of 2) above
In the case of B16, the Kd is reported as 1.31 nM, the koff is reported as 0.00101 s⁻¹ and the kon is reported as 772000 M⁻¹ s⁻¹.

Each binder was assayed against T1, rat IL-17A in the same assay as above.
Work on B16 yielded a Kd of 9.15 nM, a koff of 0.00421 s⁻¹ and a kon of 460000 M⁻¹ s⁻¹.

The binders below were run against T6, human IL-17A in the same assay as above.
With B16 the Kd was 0.521 nM, the koff was 0.000493 s⁻¹ and the kon was 947000 M⁻¹ s⁻¹.

These binders were tested against T2, mouse IL-17A in the same assay as above.
With B16 the Kd was 2.91 nM, the koff was 0.0005 s⁻¹ and the kon was 172000 M⁻¹ s⁻¹.

What follows are binders tested against T8, cynomolgus monkey IL-17A (cynomolgus monkey, UniProt A0A2K5TTB0 24-155) in the same assay as above.
T8 construct: biotinylated in the ELISA; also called cyno IL-17; Cyno IL-17A
T8 sequence (A0A2K5TTB0 entry or part of it): as the sequence (Q16552 24-155 limits assumed) above, with T3A, P8S, N34S, I77V, N78K, P104R counted along it
B16 was tested, and the Kd was 0.437 nM, the koff was 0.000254 s⁻¹ and the kon was 581000 M⁻¹ s⁻¹.
